Consider 116 sequences from the supplement of paper PMC10724198.

± gives the standard deviation of the averaged measurements.
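Note: PSI is a weighted mean of sequencing reads over stability bins, variants kept only with over 10 reads, mCherry proximal and sfGFP distal, peptide attached via GGGS linker.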

The data set deals with Saccharomyces cerevisiae. The experiment in a line: protein stability index of tFT-peptide fusion (C-terminal peptide) (PSI (0-1 scale)); higher = more stable (slower turnover). The settings on record: genetic background: wild type; temperature: 30 C.
Take VVPSLLVLPFFC: the protein stability index was 0.51 ± 0.01.

In the case of VVRLEGGSGAVW, the protein stability index worked out at 0.703 ± 0.0085. Next, VVRLGGVSWAGG: 0.649 ± 0.016; VVRLGLVSGCGG: 0.581 ± 0.013; VVRMFRLGNGNF: 0.7 ± 0.0083. VVRQADVLLGLV registered a protein stability index of 0.662 ± 0.019. For VVSLPITGTVTL the value was 0.722 ± 0.029; for VVSSFVCLLRRG, 0.654 ± 0.055. Next, VVVGGVGGFFGC: 0.754 ± 0.015. In the case of VVVGQGPLRGGA, the protein stability index is 0.714 ± 0.021. Regarding VVVIGVWGGGVG, the protein stability index was 0.612 ± 0.019.

VVVRVAEGGGRW returned a protein stability index of 0.666 ± 0.047.

Turning to VVWCSWGFLFSA, the protein stability index is 0.625 ± 0.042. For VWCVWGVGGLWA the value was 0.648 ± 0.025; for VWGGGGVTVWLV, 0.6149 ± 0.0054. In the case of VWGGGSWGGCGG, the protein stability index is 0.744 ± 0.082. Regarding VWGWGSWGGCGG, the protein stability index was 0.705 ± 0.066.

VWHWGRSLYLAA: the protein stability index stood at 0.525 ± 0.021. VWRGGGVRLGRL showed a protein stability index of 0.75 ± 0.046. For VWSWGEGGGAVV, the protein stability index worked out at 0.7 ± 0.035. For VWVCGLGGGVLG, the protein stability index was 0.777 ± 0.021. For VYGRRNVRLNIV the value was 0.582 ± 0.068. Next, VYGVVVWLFGFL: 0.678 ± 0.0095; VYHCRLSQHRTL: 0.717 ± 0.034. Sequence VYSSVPGRIAID had a protein stability index of 0.708 ± 0.008. Take VYYDERLGDGHS: the protein stability index is 0.866 ± 0.021.

With WAGGGVWRVGGR, the protein stability index was 0.715 ± 0.042. WAKRERRNEGRR registered a protein stability index of 0.71 ± 0.011.

WCGGGGRGGVAG returned a protein stability index of 0.72 ± 0.047. Next, WCIPEAPVATSR: 0.684 ± 0.0083. WCSRRIDWSSAP registered a protein stability index of 0.7318 ± 0.002. As for WDGWWGGAGVGE, the protein stability index turned out to be 0.695 ± 0.077. For WDVGSHRGGFWL the value was 0.713 ± 0.02; for WERGGGGRVCGW, 0.754 ± 0.02; for WFCSVICGVFSV, 0.5678 ± 0.00093. For WFKALCPIFCKD the value was 0.62 ± 0.015; for WFLRSFGIQRSG, 0.511 ± 0.0047. With WFRLRFASGRRS, the protein stability index worked out at 0.682 ± 0.054. For WFVCVARCPFPF the value was 0.623 ± 0.035; for WFVTVISSRFGS, 0.6444 ± 0.0011. For WGARSRFRWGRS the value was 0.7284 ± 0.0052; for WGDGSGRVWEIS, 0.68 ± 0.03; for WGFGRCELMLGS, 0.708 ± 0.035.

Sequence WGGGGRLAGLLG displayed a protein stability index of 0.687 ± 0.037.

In turn, WGGGRGLRGRWG came in with a protein stability index of 0.694 ± 0.057. Sequence WGGRAVGVLGVG showed a protein stability index of 0.629 ± 0.048. For WGGRSWGLRRGC, the protein stability index turned out to be 0.664 ± 0.028. Consider WGGTAGWLHIGV, for which the protein stability index is 0.747 ± 0.076. For WGGVRSGGACCA the value was 0.72 ± 0.075; for WGKRGGLGALSR, 0.653 ± 0.06; for WGLLCPLRSDNV, 0.705 ± 0.017. Next, WGRGETLCSSVP: 0.72 ± 0.011.

The sequence WGRGGSRGSWGA returned a protein stability index of 0.716 ± 0.014.

The sequence WGRNGRRMEVTK gave a protein stability index of 0.687 ± 0.017. Sequence WGSVGVVGLFSG gave a protein stability index of 0.69 ± 0.057.

Consider WGTDVGAGCVAR, for which the protein stability index was found to be 0.741 ± 0.027. For WGVCWRVWGFGC the value was 0.677 ± 0.074; for WGWGGGWSGACL, 0.679 ± 0.0071; for WGWGRWEMVGRT, 0.695 ± 0.011. WGYGRGRVWEIS displayed a protein stability index of 0.6137 ± 0.0011. With WHLQYTLIPYEA, the protein stability index was 0.635 ± 0.054. For WIGRSVGVELCR the value was 0.807 ± 0.13. Next, WIKKGKNRLRKT: 0.586 ± 0.05. Next, WISAPTDRNITN: 0.713 ± 0.0095; WISLRRIKSNRE: 0.802 ± 0.014.

WKYRGVGGVGMG: the protein stability index was found to be 0.745 ± 0.097. For WLFVGGWGVFGG, the protein stability index worked out at 0.674 ± 0.068. Next, WLVRNVVGGGVC: 0.722 ± 0.061.

Sequence WLYGEFGALVVD came in with a protein stability index of 0.685 ± 0.033.

Take WNWSIITTENKP: the protein stability index amounted to 0.7 ± 0.064. In turn, WPGICVWAGSPG came in with a protein stability index of 0.717 ± 0.06. WPVRNRIQPPPR returned a protein stability index of 0.705 ± 0.051. Next, WQGSASCSVVLV: 0.55 ± 0.043; WQIDVWDSNCVM: 0.692 ± 0.027.

In turn, WQWDMESKRKKE came in with a protein stability index of 0.7056 ± 0.0026. For WRFTSCCPDPAT the value was 0.772 ± 0.076. Take WRLDDPTLISNI: the protein stability index turned out to be 0.693 ± 0.032. In the case of WRMGCSVRGVVG, the protein stability index stood at 0.693 ± 0.055. For WRPVSVVSPLSD the value was 0.677 ± 0.081. For WRSSSFFPAAVG the value was 0.6715 ± 0.0042; for WRVDKREPPGRL, 0.707 ± 0.034. For WSGDLRNIEFAR the value was 0.816 ± 0.1; for WSGQWCRGRAGG, 0.706 ± 0.018. Turning to WSGWGYGISALL, the protein stability index is 0.681 ± 0.047. Next, WSIEESLGIWLR: 0.538 ± 0.021. For WSLPILPPPSPD the value was 0.663 ± 0.032; for WSQDRLFLGFGC, 0.875 ± 0.038. WSRLAGMGRGGA had a protein stability index of 0.764 ± 0.013. Take WSRSGGGEKYGV: the protein stability index amounted to 0.69 ± 0.0094.

Consider WSSGLHHLPPSP, for which the protein stability index was determined as 0.706 ± 0.091.

Consider WSSPCTGGVGKC, for which the protein stability index came out at 0.63 ± 0.0068. The sequence WSSSPAFKPSRR returned a protein stability index of 0.655 ± 0.098.

Sequence WSVVRVGGCGAR displayed a protein stability index of 0.699 ± 0.024. Consider WSWGGLHRELAA, for which the protein stability index came to 0.744 ± 0.0099. WSWRGMVELVEE came in with a protein stability index of 0.642 ± 0.069. As for WTPGTPVFSKGI, the protein stability index was found to be 0.714 ± 0.035.

Turning to WVGGGLVVFGWK, the protein stability index turned out to be 0.6944 ± 0.0025.

WVGGVVMVPVLL: the protein stability index is 0.542 ± 0.0094. For WVGLGRVWVKLG, the protein stability index was determined as 0.697 ± 0.044.

As to WVLGGVAPPAVL, the protein stability index was found to be 0.694 ± 0.048. Next, WVLPFLGAWLEL: 0.606 ± 0.063; WVPCGYIERAPL: 0.582 ± 0.05.

Sequence WVSAMGIPRVVG returned a protein stability index of 0.574 ± 0.05. In turn, WVSGLVSIGACL had a protein stability index of 0.683 ± 0.0076. WVTCALVVQSRF had a protein stability index of 0.693 ± 0.0073. Next, WVVLGGRSGCGA: 0.667 ± 0.053. Next, WWEGSFRVGAVR: 0.638 ± 0.008.

In the case of WWGCRSVGVGLG, the protein stability index was 0.675 ± 0.025. For WWGWGGVACLLL the value was 0.693 ± 0.059; for WWVGVVGCGSGA, 0.676 ± 0.11; for WYRIPGASHGPP, 0.662 ± 0.034. For YADTCEGDNLTS, the protein stability index is 0.661 ± 0.03. On to YAKKIDTIIILT, for which the protein stability index worked out at 0.54 ± 0.009. As to YANFFVVGELGP, the protein stability index came out at 0.687 ± 0.02. As to YAYLGSNLKQTA, the protein stability index was found to be 0.703 ± 0.03. As for YCHVPVVGSWIP, the protein stability index stood at 0.735 ± 0.067.
